Results reported in paper PMC11539920 (Nature, 2024).
Like-named read-outs stand apart in the source and are kept apart here. Blank lines part the entries; values can stand above or below the binder they belong to.

Tests used:
BRCA1–BARD1 complex [1] = target: T1, BRCA1–BARD1 complex (human, UniProt P38398 1-1863; Q99728 1-777); assay: pull-down
BRCA1–BARD1 complex [2] = target: T1, BRCA1–BARD1 complex; assay: pull-down; remark: listed apart in the source
[3] = target: BRCA1 (subunit of the purified BRCA1–BARD1 complex) (human, UniProt P38398 1-1863); assay: mass photometry
Chain of BRCA1 (subunit of the purified BRCA1–BARD1 complex) (P38398 whole entry, one chain of several): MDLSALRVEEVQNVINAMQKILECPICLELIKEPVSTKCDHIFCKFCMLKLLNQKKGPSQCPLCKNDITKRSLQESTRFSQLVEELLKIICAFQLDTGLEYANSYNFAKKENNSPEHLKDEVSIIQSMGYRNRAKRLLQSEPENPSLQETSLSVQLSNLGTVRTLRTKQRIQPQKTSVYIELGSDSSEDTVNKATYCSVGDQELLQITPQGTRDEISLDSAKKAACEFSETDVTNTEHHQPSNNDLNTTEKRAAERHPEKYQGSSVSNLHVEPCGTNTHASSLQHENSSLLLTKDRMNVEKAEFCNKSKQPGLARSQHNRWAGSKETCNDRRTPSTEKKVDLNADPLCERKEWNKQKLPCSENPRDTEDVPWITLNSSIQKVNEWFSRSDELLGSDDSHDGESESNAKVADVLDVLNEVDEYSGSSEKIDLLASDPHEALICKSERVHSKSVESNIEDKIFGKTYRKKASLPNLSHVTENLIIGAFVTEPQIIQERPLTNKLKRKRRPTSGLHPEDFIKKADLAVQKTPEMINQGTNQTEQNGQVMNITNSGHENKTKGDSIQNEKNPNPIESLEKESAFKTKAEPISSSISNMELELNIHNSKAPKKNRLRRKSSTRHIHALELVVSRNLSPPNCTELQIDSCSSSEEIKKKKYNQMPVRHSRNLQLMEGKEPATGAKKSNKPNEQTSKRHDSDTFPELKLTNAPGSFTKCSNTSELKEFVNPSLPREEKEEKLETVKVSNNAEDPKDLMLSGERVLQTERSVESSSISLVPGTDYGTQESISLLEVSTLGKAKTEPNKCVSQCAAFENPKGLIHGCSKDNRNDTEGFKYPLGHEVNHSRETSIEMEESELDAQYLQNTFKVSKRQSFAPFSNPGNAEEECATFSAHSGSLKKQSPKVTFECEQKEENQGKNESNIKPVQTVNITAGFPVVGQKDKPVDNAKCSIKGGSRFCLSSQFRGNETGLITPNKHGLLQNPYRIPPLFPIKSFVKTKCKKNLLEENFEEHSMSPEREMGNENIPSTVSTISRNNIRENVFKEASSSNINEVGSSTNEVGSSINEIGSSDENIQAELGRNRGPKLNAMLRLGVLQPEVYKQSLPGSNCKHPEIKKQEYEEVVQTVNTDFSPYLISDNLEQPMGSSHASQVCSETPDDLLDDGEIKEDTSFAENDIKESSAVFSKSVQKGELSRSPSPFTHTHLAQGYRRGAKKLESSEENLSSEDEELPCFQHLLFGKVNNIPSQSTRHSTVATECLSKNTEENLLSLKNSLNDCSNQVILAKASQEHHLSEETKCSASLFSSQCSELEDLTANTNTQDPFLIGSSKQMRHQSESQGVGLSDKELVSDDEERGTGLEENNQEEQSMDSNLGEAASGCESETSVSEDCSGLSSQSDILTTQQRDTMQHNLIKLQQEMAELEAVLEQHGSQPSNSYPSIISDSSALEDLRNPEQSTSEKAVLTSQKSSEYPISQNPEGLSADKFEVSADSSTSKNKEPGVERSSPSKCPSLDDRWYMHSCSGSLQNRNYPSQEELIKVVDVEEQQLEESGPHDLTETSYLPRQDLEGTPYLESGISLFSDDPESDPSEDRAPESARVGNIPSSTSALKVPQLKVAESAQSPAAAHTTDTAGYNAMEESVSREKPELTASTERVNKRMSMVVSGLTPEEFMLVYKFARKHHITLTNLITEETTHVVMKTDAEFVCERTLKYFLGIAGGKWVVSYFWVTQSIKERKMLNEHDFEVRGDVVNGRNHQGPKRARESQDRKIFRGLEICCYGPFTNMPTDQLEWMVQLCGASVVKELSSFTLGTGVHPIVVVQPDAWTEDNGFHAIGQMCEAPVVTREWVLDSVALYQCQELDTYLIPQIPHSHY

T1 sequence (P38398 whole entry, one chain of several): as above

binding result (BRCA1–BARD1 complex [1]): binds
B1: GFP-WRN (enzyme)
chain: not shown

binding result (BRCA1–BARD1 complex [2]): binds
B2: GST-tagged BLM fragment, residues 636–857 (domain or fragment)
chain: not shown

binding result (BRCA1–BARD1 complex [2]): binds
B3: GST-tagged BLM fragment, residues 636–1298 (domain or fragment)
chain: not shown

stoichiometry N [3]: 1
B4: BARD1 (subunit of the purified BRCA1–BARD1 complex) (natural protein, human, UniProt Q99728 1-777, looked up)
chain: MPDNRQPRNRQPRIRSGNEPRSAPAMEPDGRGAWAHSRAALDRLEKLLRCSRCTNILREPVCLGGCEHIFCSNCVSDCIGTGCPVCYTPAWIQDLKINRQLDSMIQLCSKLRNLLHDNELSDLKEDKPRKSLFNDAGNKKNSIKMWFSPRSKKVRYVVSKASVQTQPAIKKDASAQQDSYEFVSPSPPADVSERAKKASARSGKKQKKKTLAEINQKWNLEAEKEDGEFDSKEESKQKLVSFCSQPSVISSPQINGEIDLLASGSLTESECFGSLTEVSLPLAEQIESPDTKSRNEVVTPEKVCKNYLTSKKSLPLENNGKRGHHNRLSSPISKRCRTSILSTSGDFVKQTVPSENIPLPECSSPPSCKRKVGGTSGRKNSNMSDEFISLSPGTPPSTLSSSSYRRVMSSPSAMKLLPNMAVKRNHRGETLLHIASIKGDIPSVEYLLQNGSDPNVKDHAGWTPLHEACNHGHLKVVELLLQHKALVNTTGYQNDSPLHDAAKNGHVDIVKLLLSYGASRNAVNIFGLRPVDYTDDESMKSLLLLPEKNESSSASHCSVMNTGQRRDGPLVLIGSGLSSEQQKMLSELAVILKAKKYTEFDSTVTHVVVPGDAVQSTLKCMLGILNGCWILKFEWVKACLRRKVCEQEEKYEIPEGPRRSRLNREQLLPKLFDGCYFYLWGTFKHHPKDNLIKLVTAGGGQILSRKPKPDSDVTQTINTVAYHARPDSDQRFCTQYIIYEDLCNYHPERVRQGKVWKAPSSWFIDCVMSFELLPLDS

binding result (BRCA1–BARD1 complex [2]): binds
B5: GST-tagged BLM fragment, residues 2–635 (domain or fragment, human, UniProt P54132 2-635, looked up)
chain: AAVPQNNLQEQLERHSARTLNNKLSLSKPKFSGFTFKKKTSSDNNVSVTNVSVAKTPVLRNKDVNVTEDFSFSEPLPNTTNQQRVKDFFKNAPAGQETQRGGSKSLLPDFLQTPKEVVCTTQNTPTVKKSRDTALKKLEFSSSPDSLSTINDWDDMDDFDTSETSKSFVTPPQSHFVRVSTAQKSKKGKRNFFKAQLYTTNTVKTDLPPPSSESEQIDLTEEQKDDSEWLSSDVICIDDGPIAEVHINEDAQESDSLKTHLEDERDNSEKKKNLEEAELHSTEKVPCIEFDDDDYDTDFVPPSPEEIISASSSSSKCLSTLKDLDTSDRKEDVLSTSKDLLSKPEKMSMQELNPETSTDCDARQISLQQQLIHVMEHICKLIDTIPDDKLKLLDCGNELLQQRNIRRKLLTEVDFNKSDASLLGSLWRYRPDSLDGPMEGDSCPTGNSMKELNFSHLPSNSVSPGDCLLTTTLGKTGFSATRKNLFERPLFNTHLQKSFVSSNWAETPRLGKKNESSYFPGNVLTSTAVKDQNKHTASINDLERETQPSYDIDNFDIDDFDDDDDWEDIMHNLAASKSSTAAYQPIKEGRPIKSVSERLSSAKTDCLPVSSTAQNINFSESIQNYTDKSAQNLA
